According to patent US20220395553A1 (COHBAR, published 2022):
Square brackets hold non-standard residues; d marks the D form. Ends that are not written are not given here.

Key:
[1] = target: T1, ProLink tagged human CXCR4 (C2C12 CXCR4 β-Arrestin cell line) (human, UniProt P61073 1-352); test: cell-based or functional assay
T1 sequence (P61073 whole entry): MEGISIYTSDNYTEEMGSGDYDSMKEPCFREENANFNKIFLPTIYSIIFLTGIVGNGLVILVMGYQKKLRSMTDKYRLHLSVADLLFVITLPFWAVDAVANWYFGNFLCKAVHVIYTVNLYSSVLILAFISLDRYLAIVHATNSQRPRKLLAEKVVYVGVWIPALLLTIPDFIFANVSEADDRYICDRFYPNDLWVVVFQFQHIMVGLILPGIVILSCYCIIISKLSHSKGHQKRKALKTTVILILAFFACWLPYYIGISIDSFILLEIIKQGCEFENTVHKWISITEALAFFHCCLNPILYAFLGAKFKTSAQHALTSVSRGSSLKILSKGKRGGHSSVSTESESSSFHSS

[2] = target: T2, CXCR4 on cultured U937 and Jurkat cells (human, UniProt P61073 1-352); test: cell-based or functional assay
[3] = target: T2, CXCR4 on cultured U937 and Jurkat cells; test: cell-based or functional assay; remark: listed apart in the source
[4] = target: T3, SNAP tagged-CXC4 receptor labeled with terbium (Tag-lite CXCR4 cells, HEK293) (UniProt P61073 1-352, SNAP tag labeled with terbium fluorescent dye); test: HTRF competition on Tag-lite CXCR4 HEK293 cells; competitor labelled CXCL12
T3 construct: whole, on cells; Bought frozen cells (PerkinElmer-CisBio), HEK293 transiently expressing the receptor; also called terbium labeled CXCR receptor
T3 sequence (P61073 whole entry): as above
Method: (§1) Peptides were initially prepared as 1 mM stock in H₂O and tested at a final concentration of 400 nM. Following the manufacture's protocol, a frozen aliquot of Tag-lite CXCR4 cells was thawed and immediately seeded onto 384-well plates in TLB. Immediately following the addition of cells, 400 nM peptide (final concentration) in TLB was added to the appropriate well. […] The plates were covered in aluminum foil and left at room temperature for 3 hours. Following the 3 hour incubation period, the plates were removed from the incubator and fluorescence measured using a Cytation 1 plate reader using a HTRF filter cube ([…]; BioTek; Winooski, Vt.).

[5] = target: T3, SNAP tagged-CXC4 receptor labeled with …; test: as above; remark: listed apart in the source
Method: as §1, with “H₂O. […]” for “H₂O and tested at a final concentration of 400 nM.”, “TLB.” for “TLB. Immediately following the addition of cells, 400 nM peptide (final concentration) in TLB was added to the appropriate well.”

[6] = target: T4, ProLink tagged human CXCR4 (C2C12 CXCR4 β-Arrestin cell line) (human, UniProt P61073 1-352); test: cell-based or functional assay; remark: listed apart in the source
T4 sequence (P61073 whole entry): as above

[7] = target: T2, CXCR4 on cultured U937 and Jurkat cells; test: cell-based or functional assay; remark: listed apart in the source
[8] = target: T4, ProLink tagged human CXCR4 (C2C12 CXCR4 …); test: cell-based or functional assay; remark: listed apart in the source
[9] = target: T1, ProLink tagged human CXCR4 (C2C12 CXCR4 …); test: cell-based or functional assay; remark: listed apart in the source

T2 sequence (P61073 whole entry): as above

## LERYHHTVRSSLRPYTK [SEQ ID NO: 39]
[1]
  IC50 for Inhibition of CXCR4 Activation (β-Arrestin recruitment): 3 nM
[2]
  Percent Inhibition of CXCL12 Mediated Migration (1.1 µM Test Article; Jurkat cells): 77%
[3]
  Percent Inhibition of CXCR4/CXCL12 Induced p-MEK (100 nM Test Article): 38%
  Percent Inhibition of CXCR4/CXCL12 Induced p-MEK (1 µM Test Article): 95%
[4]
  Percent Inhibition of CXCR4/CXCL12 Binding (400 nM peptide): 87%
[5]
  IC50: 8 nM

## LRRYHHSVRSSLRPYTK [SEQ ID NO: 3]
[6]
  IC50 for Inhibition of CXCR4 (β-Arrestin recruitment): 0.51 nM
[7]
  Percent Inhibition of CXCL12 Mediated Migration (U937 cells): 101%
[8]
  IC50 for Inhibition of CXCR4 Activation (β-Arrestin recruitment): 5 nM
[2]
  Percent Inhibition of CXCL12 Mediated Migration (1.1 µM Test Article; Jurkat cells): 66%
[3]
  Percent Inhibition of CXCR4/CXCL12 Induced p-MEK (100 nM Test Article): 29%
  Percent Inhibition of CXCR4/CXCL12 Induced p-MEK (1 µM Test Article): 91%
[5]
  IC50: 497 nM

## LRRYHHSVRTSLRPYTK [SEQ ID NO: 70]
[1]
  IC50 for Inhibition of CXCR4 Activation (β-Arrestin recruitment): 2 nM
[2]
  Percent Inhibition of CXCL12 Mediated Migration (1.1 µM Test Article; Jurkat cells): 21%
[3]
  Percent Inhibition of CXCR4/CXCL12 Induced p-MEK (100 nM Test Article): 57%
  Percent Inhibition of CXCR4/CXCL12 Induced p-MEK (1 µM Test Article): 93%
[4]
  Percent Inhibition of CXCR4/CXCL12 Binding (400 nM peptide): 11%
[5]
  IC50: 336 nM

## MLRRYHHSVRSSLRPYTK [SEQ ID NO: 2]
[7]
  Percent Inhibition of CXCL12 Mediated Migration (U937 cells): 58%
[1]
  IC50 for Inhibition of CXCR4 Activation (β-Arrestin recruitment): 11 nM
[2]
  Percent Inhibition of CXCL12 Mediated Migration (1.1 µM Test Article; Jurkat cells): 4%
[3]
  Percent Inhibition of CXCR4/CXCL12 Induced p-MEK (100 nM Test Article): -1%
  Percent Inhibition of CXCR4/CXCL12 Induced p-MEK (1 µM Test Article): 28%
[5]
  IC50: 375 nM

## LRRYHHSVRSSLRGYTK [SEQ ID NO: 79]
[1]
  IC50 for Inhibition of CXCR4 Activation (β-Arrestin recruitment): 3 nM
[2]
  Percent Inhibition of CXCL12 Mediated Migration (1.1 µM Test Article; Jurkat cells): 36%
[3]
  Percent Inhibition of CXCR4/CXCL12 Induced p-MEK (100 nM Test Article): 46%
  Percent Inhibition of CXCR4/CXCL12 Induced p-MEK (1 µM Test Article): 100%
[4]
  Percent Inhibition of CXCR4/CXCL12 Binding (400 nM peptide): 12%
[5]
  IC50: 670 nM

## LRRYHHSVRSSLRPYTK-NH2 [SEQ ID NO: 16]
[8]
  IC50 for Inhibition of CXCR4 Activation (β-Arrestin recruitment): 8 nM
[2]
  Percent Inhibition of CXCL12 Mediated Migration (1.1 µM Test Article; Jurkat cells): 21%
[3]
  Percent Inhibition of CXCR4/CXCL12 Induced p-MEK (100 nM Test Article): 74%
  Percent Inhibition of CXCR4/CXCL12 Induced p-MEK (1 µM Test Article): 100%

## LERYHHSVRSSLRPYTK-NH2 [SEQ ID NO: 56]
[8]
  IC50 for Inhibition of CXCR4 Activation (β-Arrestin recruitment): 11 nM
[2]
  Percent Inhibition of CXCL12 Mediated Migration (1.1 µM Test Article; Jurkat cells): 83%
[3]
  Percent Inhibition of CXCR4/CXCL12 Induced p-MEK (100 nM Test Article): 69%
  Percent Inhibition of CXCR4/CXCL12 Induced p-MEK (1 µM Test Article): 98%

## LERYHHSVRSSLRPYSK [SEQ ID NO: 75]
[1]
  IC50 for Inhibition of CXCR4 Activation (β-Arrestin recruitment): 4 nM
[2]
  Percent Inhibition of CXCL12 Mediated Migration (1.1 µM Test Article; Jurkat cells): 81%
[3]
  Percent Inhibition of CXCR4/CXCL12 Induced p-MEK (100 nM Test Article): 60%
  Percent Inhibition of CXCR4/CXCL12 Induced p-MEK (1 µM Test Article): 100%
[4]
  Percent Inhibition of CXCR4/CXCL12 Binding (400 nM peptide): 81%
[5]
  IC50: 11 nM

## LERYHHS[dA]RSSLRPYT [SEQ ID NO: 5]
[9]
  IC50 for Inhibition of CXCR4 (β-Arrestin recruitment): 121 nM
[7]
  Percent Inhibition of CXCL12 Mediated Migration (U937 cells): 86%
[1]
  IC50 for Inhibition of CXCR4 Activation (β-Arrestin recruitment): 244 nM
[2]
  Percent Inhibition of CXCL12 Mediated Migration (1.1 µM Test Article; Jurkat cells): 46%
[3]
  Percent Inhibition of CXCR4/CXCL12 Induced p-MEK (100 nM Test Article): -20%
  Percent Inhibition of CXCR4/CXCL12 Induced p-MEK (1 µM Test Article): 24%
[5]
  IC50: 33 nM

## LERYHHSVRSTLRPYTK [SEQ ID NO: 74]
[1]
  IC50 for Inhibition of CXCR4 Activation (β-Arrestin recruitment): 5 nM
[2]
  Percent Inhibition of CXCL12 Mediated Migration (1.1 µM Test Article; Jurkat cells): 61%
[3]
  Percent Inhibition of CXCR4/CXCL12 Induced p-MEK (100 nM Test Article): 48%
  Percent Inhibition of CXCR4/CXCL12 Induced p-MEK (1 µM Test Article): 93%
[4]
  Percent Inhibition of CXCR4/CXCL12 Binding (400 nM peptide): 88%
[5]
  IC50: 6 nM

## LERYHHSVRSSLRPYTK [SEQ ID NO: 4]
[6]
  IC50 for Inhibition of CXCR4 (β-Arrestin recruitment): 2.28 nM
[7]
  Percent Inhibition of CXCL12 Mediated Migration (U937 cells): 98%
[8]
  IC50 for Inhibition of CXCR4 Activation (β-Arrestin recruitment): 4 nM
[2]
  Percent Inhibition of CXCL12 Mediated Migration (1.1 µM Test Article; Jurkat cells): 77%
[3]
  Percent Inhibition of CXCR4/CXCL12 Induced p-MEK (100 nM Test Article): 40%
  Percent Inhibition of CXCR4/CXCL12 Induced p-MEK (1 µM Test Article): 76%
[4]
  Percent Inhibition of CXCR4/CXCL12 Binding (400 nM peptide): 88%
[5]
  IC50: 6 nM

## LERYHHSVRTSLRPYTK [SEQ ID NO: 73]
[1]
  IC50 for Inhibition of CXCR4 Activation (β-Arrestin recruitment): 4 nM
[2]
  Percent Inhibition of CXCL12 Mediated Migration (1.1 µM Test Article; Jurkat cells): 82%
[3]
  Percent Inhibition of CXCR4/CXCL12 Induced p-MEK (100 nM Test Article): 47%
  Percent Inhibition of CXCR4/CXCL12 Induced p-MEK (1 µM Test Article): 96%
[4]
  Percent Inhibition of CXCR4/CXCL12 Binding (400 nM peptide): 87%
[5]
  IC50: 10 nM
